In patent US20250188193A1:

Assays:
[1] = target: soluble human FcγRIIIa ectodomain (human) (UniProt P08637); assay: SPR (Biacore T200), mAb on Protein G chip, soluble FcγR ectodomain as analyte
[2] = target: soluble human FcγRIIb ectodomain (human) (UniProt P31994); assay: as above
[3] = target: soluble human FcγRIIa ectodomain (human) (UniProt P12318); assay: as above
[4] = target: Rituximab G2 (galactosylated afucosylated glycoform); assay: SPR, 256 to 8 nM
[5] = target: Rituximab G2F (galactosylated fucosylated glycoform); assay: SPR, 256 to 8 nM

Sequence of tetrameric FcγRIIIA (P08637 17-208 limits assumed): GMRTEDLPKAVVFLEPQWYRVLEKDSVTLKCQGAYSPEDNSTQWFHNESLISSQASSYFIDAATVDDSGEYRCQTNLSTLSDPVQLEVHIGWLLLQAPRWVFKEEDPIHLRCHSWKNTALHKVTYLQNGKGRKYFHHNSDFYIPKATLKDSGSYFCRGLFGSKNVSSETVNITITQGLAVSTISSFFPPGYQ
Sequence of soluble human FcγRIIb ectodomain (human) (P31994 43-217): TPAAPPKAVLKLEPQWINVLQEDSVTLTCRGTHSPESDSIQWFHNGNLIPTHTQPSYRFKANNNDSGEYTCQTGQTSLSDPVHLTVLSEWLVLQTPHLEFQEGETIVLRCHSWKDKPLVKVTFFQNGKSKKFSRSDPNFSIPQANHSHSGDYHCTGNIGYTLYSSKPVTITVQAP

Substance | Fold (affinity relative to Wild-type) [1] [fold] | Kd [1] [nM] | Fold (affinity relative to Wild-type) [2] [fold] | Kd [2] [µM] | Fold (affinity relative to Wild-type) [3] [fold] | Kd [3] [nM] | KD1 [4] [nM] | KD2 [4] [nM] | KD1 [5] [nM] | KD2 [5] [nM]
human IgG1 Fc variant printed 'GAALIE' in the second such row of Table 9 (r13) (antibody) | 0.8 | 903 | 1.1 | 2.89 | 5.5 | 186 |  |  |  | 
human IgG1 Fc variant: ALIE (antibody) |  | 169 | 0.8 | 3.92 | 0.5 | 2070 |  |  |  | 
human IgG1 Fc variant: Afucosylated (antibody) |  |  |  | 2.22 |  | 747 |  |  |  | 
human IgG1 Fc variant: GAALIE (antibody) |  | 218 | 0.8 | 4.15 | 2.7 | 387 |  |  |  | 
human IgG1 Fc variant: Wild-type (antibody) | 1 | 740 |  | 3.11 | 1 | 1030 |  |  |  | 
tetrameric FcγRIIIA (from UniProt P08637 17-208) (receptor) |  |  |  |  |  |  | 29.9 | 2.3 | 55.2 | 2.29
